Data on 35 sequences can be found in the domain aggregation screens of Martell et al. (2025).

This data set in a line: soluble fraction after stress (log2 fold change); higher = more stays soluble; pooled small domains, quantitative proteomics. To be noted: stress: 50 degC. The gist of the method:
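Each library was heated to 50°C as a stress step. The libraries, made up of small protein domains, were pooled and analysed at high throughput by quantitative proteomics. The reported value is the base-two logarithm of the fold change in each protein's soluble amount after stress, taken as a measure of aggregation propensity. The higher the value, the more protein stays in solution.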

Consider “HMEKKPYGEMHNVMLTDEELEKLRHDYPAHFAEYIQRLSLHIDAKGARYKSHYAVIRKWLIADGVKA”, for which the “soluble fraction (log2)” value is -0.679.
Next, “HMHLKDEHGLTPKQRAFADEYVITLNATVSYKKIYSVKRDSVASTNGSRLLGNANVKAYIDKRLEE”: -2.19; “HMGAAVEVISLRYRSAAELLPIVRSLLSTEGKISADERTNSLIIVDSDEAVARVIHSLATLDT”: -0.125; “HMPEMAIRTLRLRNQRGAAVAAEWSRITASLLELRQVEFVNPVDQLIVLKGPEPWAGVAEELVRQLDV”: -0.849.
With “HMEKYIVEAEEQGKRLDMYISSKDEELTRTSAQRLIEQGDILVNNKKVKVAYKVSEGDIIAVEKQ”, the “soluble fraction (log2)” value was determined as 0.0849.
Regarding “HMVEPIEESISQLSLLLQSLYEDGKSEVSFEELIRSDRSRVSLFLALLFMAQRGNVYLEQEELFGDLRVKN”, the “soluble fraction (log2)” value was 0.0123.
Then “HMKLSKLTKPELDEIFRNANFTEEEEKVFWLLARGKSLEQISAKTFLPIATVNRRVKSIKDKIG”, with 0.0605.
Regarding “HMYVKKSSFVKKSLNNYEFKITDNTNDLLIFYKGMLPDLFREEQGIVVEGLIDKNNNIVASKV”, the “soluble fraction (log2)” value was -0.0872.
For the sequence “HMGLDQNTLDRVDDINDTLATGIEIGPETRGTIEELNETLANGLKAGFDEETLARVDELLRVVEDGLK”, the “soluble fraction (log2)” value stood at 0.0149.
Regarding “HMKNLSQAEFMYLFKILAFGSTDPDNHPEMAATGMEIAKMLQGLLLSGNVLADILRKNQNVQFWL”, the “soluble fraction (log2)” value is -0.204.
“HMSPREDQQSRKQHILEAAAVLFAERGYYKTTTADVARAVGVTQPYVFHFFKSKEELYLAVL”: the “soluble fraction (log2)” value was -0.0115.
Next, “HMEVAAAENYRSKLSSFAKDTISVWQTELLLGTISDDDKASLTEWMAYIKALQVVDTSDPESITWPTEPT”: -1.45; “HMILNDRSELLDVVKRVIAANPASVADYRKGKKKVLGFLVGQAMKETKGQADPRILNELFLQELGEN”: 0.0223; “HMGSTVRIVVPAADIPAYKDIQPSDLEYREVPKDEISEDAVTDPQEVINKYSTSPLYAGWPINKNIIET”: 0.0298.
“HMLADIGGRIADLRREVGLTQGELAEKADISVVHLSNIELGKKTPGLSTLIRIAEALDVATDWILQA”: the “soluble fraction (log2)” value was -1.02.
Next, “HMLQGKVSFFNDEKGYGFIKDNNSKDSYFVHINKVEGEIAEGDKVTFELEKGPKGLVAANVKR”: 0.184.
Next, “HMDTAGSVAIVSKSVIENGFGEIKYKGTYFKAQSDVYIPKDQMVKVIGKGDEQGSFLIVEKLN”: -0.0425; “HMELDLPLEELGLSTRVLHSLKEEGIESVRALLALNLKDLKNIPGIGERSLEEIKEALEKKGFTLK”: -0.0498.
For “HMNQYIFVLNEKGARITSFVDNTIPKEELIALAKQDYPNAADYIYSADGDSMLDEFMRGKLYVNGQFVAA”, the “soluble fraction (log2)” value was -0.69.
Take “HMRRTVIVTAAHAEIRERPDANAPLVFSAEQKVSLDYQETAPGGWVKVRHRDGQSGYVRTNQI”: the “soluble fraction (log2)” value is -0.688.
Next, “HMDFGMPEELQKKLDKMPALKAAFEALTPGRQRGYIFYFSQPKQSKTRELRIEKSIEQIMNGKGLND”: -0.115.
Turning to “HMIPDMSLELAMSEQTSKGDLYGDLPNDKLALMFNAISKKVPHTDDHKRKMVAIQTILESRAS”, the “soluble fraction (log2)” value was -0.251.
Next, “HMKNKFYEEFSDYIFKHTGIHYAEANYYQLDARINKLMKFLETSDENDVLKAIQGGAVKDQRVHQMIVDLA”: -1.7.
Then “HMGVMTGAEFVGNTVASVERNLIIDTLKHTMGNRTTAANILGISIRTLRNKLKQYQNEGFDIPE”, with -0.703; and “HMGSYVVQLGAFAIRANAEKLAREVDGSIATSGRFSLVRVGPFTSRGQAEQALAKLRARGYSDALIHSL”, with -0.224; and “HMSVETSDLLPLIEQVLSLNPDKVKEYQNGKKGLLGFFMGQIKQTAGVAIDVGTLKPLLEDALHKDL”, with -0.493.
Then “HMPAVVEFDVKPRGEVLVDGIWYGRIPELREVELRPGRHHLRVQNAGHPSLDLVVTLEPGERMTVTHTFA”, with -0.102; and “HMQLSQLLQPFDINAFKGHPLYTEENVKMFNDYTNRVKEWTKGTPYEQYWVTKEGQPTMLAWDSFKK”, with -0.972; and “HMSWAAQVVDKMTNDQLIKSLNEIVNTGKQLGLDITVEQNGDKNFIMTVKDSKGNVQLVTPIG”, with -0.0133.
For “HMLLGDYIQKLRNQRGLSQQEFADKLGIGRSTLANYEQNKRSPDYETLIEISKFFNVSIDELLGV”, the “soluble fraction (log2)” value is -0.484.
Then “HMKELTYSDFRKAYPDIQGNLFGMAERYITALDWTEVAAKVETDEELRKERDIFYLVKTYIRKYVQ”, with -0.487.
Next, “HMSQQVVTDGVNLRLRYAPSPDAETYKWADGTNRHPEKGERFPYLGDIGDFYRIDYKGLVLYVSKQHTHL”: -1.85; “HMGGEHPIPEDWAVNEANYEHGAKFYGYTRAHVDAEAQAFRDQYAANGKKYVDWDAHFRTFMRWQNERRYG”: -0.111; “HMHGEAVVVPNVKGLPMRQAENEIYKQSLKAVAIDSSYVKGMPPGAILEQNPAGGSKVKKGRTVYLTINMD”: -0.0918.
Next, “HMPGTEAQDGEVLLDALRRIHPDSSTGTLRRMLTQGRVQVDGTTVHAAKAELTSGQHVEVVAR”: 0.0101.
